Reference: patent US20220332804A1 (CSL INNOVATION, published 2022)
One block for each binder: values may come before it.

How the values were obtained:
[1] = biological target: T1, cynomolgus monkey FcRn/β2m (cynomolgus monkey, UniProt Q8SPV9 24-297; Q8SPW0 21-119, limits assumed); test: SPR, immobilised antibody, cyno FcRn/b2m analyte, pH 7.3
T1 construct: injected in solution over immobilised antibody; also called Cyno FcRn/β2m
Protocol: (§1) Anti-C2 mAbs (1 μg/mL at pH 5) were immobilized on a carboxylmethyldextran (CM5) sensorchip surface using standard EDC/NHS chemistry. Human and Cyno FcRn/β2m (40 μM) were prepared in running buffer (10 mM HEPES, 150 mM NaCl, 10 mM MES adjusted to either pH 6 or pH 7.3) and injected on the immobilized anti-C2 surface at concentrations ranging from 0.078 to 40 μM, prepared in two-fold dilutions in running buffer. Association and dissociation phases were monitored for 180 and 600 seconds, respectively. […] Double referenced sensorgrams were fitted to either a 1:1 kinetic model (pH 6), including a term for mass transport limitation or to a 1:1 steady state model (pH 7.3) where responses at the end of the association phase were plotted against respective concentrations.
(§2) Binding to both human and cynomolgus monkey FcRn was tested using the SPR methods described above.

[2] = biological target: T1, cynomolgus monkey FcRn/β2m; test: SPR, immobilised antibody, cyno FcRn/b2m analyte, pH 6.0
Protocol: as §1, §2

[3] = biological target: T2, human complement C2 zymogen (human, UniProt P06681 21-752); test: SPR kinetics, captured antibody, analyte huC2 0 mM Ca^2+, pH 7.3
T2 construct: also called huC2; human C2
T2 sequence: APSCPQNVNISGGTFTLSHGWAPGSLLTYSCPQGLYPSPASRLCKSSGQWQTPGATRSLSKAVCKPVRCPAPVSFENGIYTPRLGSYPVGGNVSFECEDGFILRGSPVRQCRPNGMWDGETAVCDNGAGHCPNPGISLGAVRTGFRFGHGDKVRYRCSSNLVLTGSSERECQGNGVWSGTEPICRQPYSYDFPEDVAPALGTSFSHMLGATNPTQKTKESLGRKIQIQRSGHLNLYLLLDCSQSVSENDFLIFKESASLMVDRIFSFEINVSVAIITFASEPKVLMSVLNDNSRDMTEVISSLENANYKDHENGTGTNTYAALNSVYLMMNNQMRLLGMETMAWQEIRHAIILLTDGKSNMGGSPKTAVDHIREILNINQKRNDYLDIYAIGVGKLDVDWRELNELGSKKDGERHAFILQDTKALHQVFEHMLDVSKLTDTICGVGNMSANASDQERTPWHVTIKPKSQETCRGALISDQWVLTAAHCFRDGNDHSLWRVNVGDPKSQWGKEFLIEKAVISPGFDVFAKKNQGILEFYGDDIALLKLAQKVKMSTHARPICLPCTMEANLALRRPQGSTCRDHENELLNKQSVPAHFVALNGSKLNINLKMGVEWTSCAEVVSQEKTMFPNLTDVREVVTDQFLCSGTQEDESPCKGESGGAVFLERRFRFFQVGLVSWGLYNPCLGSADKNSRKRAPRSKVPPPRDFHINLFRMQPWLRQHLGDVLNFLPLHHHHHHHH
Protocol: (§3) Surface plasmon resonance (SPR, Biacore) was used for all binding affinity analyses. In brief, goat anti-human IgG was directly immobilised onto the carboxymethyl dextran surface of CM5 sensorchips to approximately 12,000 RU using standard NHS/EDC chemistry at pH 5. The immobilised antibody surface was pre-conditioned with ten injections of polyclonal human IgG (Privigen 60 s) prepared at 1 μg/mL. Ligands (anti-C2 mAbs) were captured at the beginning of each cycle as described below. An adjacent spot or flow cell in which only Polyclonal IgG was capture was used as a reference surface. The goat anti-human IgG Fc antibody surface was regenerate in 100 mM H3PO4, injected for 45 seconds at the end of each cycle. Experiments were performed at 37° C. and the flow rate of each experiment was kept constant at 30 μL/min.

[4] = biological target: T2, human complement C2 zymogen; test: SPR steady state, captured antibody, analyte huC2 2000 mM Ca^2+ (so in the source), pH 6.0
[5] = biological target: T2, human complement C2 zymogen; test: SPR steady state, captured antibody, analyte huC2 0 mM Ca^2+, pH 6.0
[6] = biological target: T2, human complement C2 zymogen; test: SPR kinetics, captured antibody, analyte huC2 2000 mM Ca^2+ (so in the source), pH 7.3
Protocol: as §3

[7] = biological target: T2, human complement C2 zymogen; test: SPR kinetics, captured antibody, analyte huC2 (so in the source), pH 7.3
Protocol: as §3

[8] = biological target: T2, human complement C2 zymogen; test: SPR kinetics, captured antibody, analyte huC2 200 mM Ca^2+ (so in the source), pH 7.3
Protocol: as §3

[9] = biological target: T2, human complement C2 zymogen; test: SPR kinetics, captured antibody, analyte huC2 20 mM Ca^2+ (so in the source), pH 7.3
Protocol: as §3

[10] = biological target: T2, human complement C2 zymogen; test: SPR steady state, captured antibody, analyte huC2 200 mM Ca^2+ (so in the source), pH 6.0
[11] = biological target: T2, human complement C2 zymogen; test: SPR steady state, captured antibody, analyte huC2 20 mM Ca^2+ (so in the source), pH 6.0
[12] = biological target: T2, human complement C2 zymogen; test: as above; remark: listed apart in the source
[13] = biological target: T2, human complement C2 zymogen; test: SPR kinetics, captured antibody, analyte huC2 200 mM Ca^2+ (so in the source), pH 7.3; remark: listed apart in the source
Protocol: as §3

[14] = biological target: T2, human complement C2 zymogen; test: SPR kinetics, captured antibody, analyte huC2 0 mM Ca^2+, pH 7.3; remark: listed apart in the source
Protocol: as §3

[15] = biological target: T2, human complement C2 zymogen; test: SPR steady state, captured antibody, analyte huC2 2000 mM Ca^2+ (so in the source), pH 6.0; remark: listed apart in the source
[16] = biological target: T2, human complement C2 zymogen; test: SPR steady state, captured antibody, analyte huC2 0 mM Ca^2+, pH 6.0; remark: listed apart in the source
[17] = biological target: T2, human complement C2 zymogen; test: SPR kinetics, captured antibody, analyte huC2 2000 mM Ca^2+ (so in the source), pH 7.3; remark: listed apart in the source
Protocol: as §3

[18] = biological target: T2, human complement C2 zymogen; test: SPR kinetics, captured antibody, analyte huC2 20 mM Ca^2+ (so in the source), pH 7.3; remark: listed apart in the source
Protocol: as §3

[19] = biological target: T2, human complement C2 zymogen; test: SPR steady state, captured antibody, analyte huC2 200 mM Ca^2+ (so in the source), pH 6.0; remark: listed apart in the source
[20] = biological target: T2, human complement C2 zymogen; test: SPR kinetics, captured antibody, analyte huC2 2 mM Ca^2+ (so in the source), pH 7.3
Protocol: as §3

[21] = biological target: T2, human complement C2 zymogen; test: SPR steady state, captured antibody, analyte huC2 200 mM Ca^2+ (so in the source), pH 6.0; remark: listed apart in the source
Protocol: as §3
(§4) Sensogram data was double-referenced against a reference anti-IgG surface (i.e. minus anti-C2 mAb) and blank buffer injections obtained within each experiment. The binding data was fit to 1:1 (kinetic or steady-state) model using local Rmax and null refraction index (RI=0) when appropriate. Buffers and solutions were filtered (0.22 μm) prior to use.
(§5) Calcium concentrations ranged from zero (i.e. no added calcium, control) to near physiological levels (0.02, 0.2 and 2 mM CaCl₂.2H₂O, MW 147.02 Da).

[22] = biological target: T2, human complement C2 zymogen; test: SPR kinetics, captured antibody, analyte huC2 0 mM Ca^2+, pH 7.3; remark: listed apart in the source
Protocol: as §3, §4, §5

[23] = biological target: T2, human complement C2 zymogen; test: SPR kinetics, captured antibody, analyte huC2 2000 mM Ca^2+ (so in the source), pH 7.3; remark: listed apart in the source
Protocol: as §3, §4, §5

[24] = biological target: T2, human complement C2 zymogen; test: SPR steady state, captured antibody, analyte huC2 20 mM Ca^2+ (so in the source), pH 6.0; remark: listed apart in the source
Protocol: as §3, §4, §5

[25] = biological target: T2, human complement C2 zymogen; test: SPR kinetics, captured antibody, analyte huC2 200 mM Ca^2+ (so in the source), pH 7.3; remark: listed apart in the source
Protocol: as §3, §4, §5

[26] = biological target: T1, cynomolgus monkey FcRn/β2m; test: SPR, immobilised antibody, cyno FcRn/b2m analyte, pH 6.0; pH 6.0
Protocol: as §1, §2

[27] = biological target: T2, human complement C2 zymogen; test: SPR steady state, captured antibody, analyte huC2 2000 mM Ca^2+ (so in the source), pH 6.0; remark: listed apart in the source
Protocol: as §3, §4, §5

[28] = biological target: T2, human complement C2 zymogen; test: SPR kinetics, captured antibody, analyte huC2 20 mM Ca^2+ (so in the source), pH 7.3; remark: listed apart in the source
Protocol: as §3, §4, §5

[29] = biological target: T2, human complement C2 zymogen; test: SPR kinetics, captured antibody, analyte huC2 (so in the source), pH 7.3; remark: listed apart in the source
Protocol: as §3, §4, §5

[30] = biological target: T2, human complement C2 zymogen; test: SPR steady state, captured antibody, analyte huC2 0 mM Ca^2+, pH 6.0; remark: listed apart in the source
Protocol: as §3, §4, §5

T1 sequence (Q8SPV9 24-297 limits assumed, chain 1 of 2): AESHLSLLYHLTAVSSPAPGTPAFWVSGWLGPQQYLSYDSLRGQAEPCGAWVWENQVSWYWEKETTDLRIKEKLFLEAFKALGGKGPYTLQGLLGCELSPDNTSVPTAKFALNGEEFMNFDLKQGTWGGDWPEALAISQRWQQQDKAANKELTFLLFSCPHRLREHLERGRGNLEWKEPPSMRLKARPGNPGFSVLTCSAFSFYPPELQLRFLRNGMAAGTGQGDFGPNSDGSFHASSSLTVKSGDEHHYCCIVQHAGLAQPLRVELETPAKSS
T1 sequence (Q8SPW0 21-119 limits assumed, chain 2 of 2): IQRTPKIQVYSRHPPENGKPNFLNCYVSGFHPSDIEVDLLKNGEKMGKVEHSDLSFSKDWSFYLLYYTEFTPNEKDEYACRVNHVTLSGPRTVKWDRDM

Kd [1]: 2200 nM
Kd [2]: 19 nM
Kd [3]: 8.7 nM
koff [3]: 0.00521 s⁻¹
kon [3]: 601000 M⁻¹ s⁻¹
Kd [4]: 105 nM
Kd [5]: 84 nM
Kd [6]: 10.7 nM
koff [6]: 0.00573 s⁻¹
kon [7]: 538000 M⁻¹ s⁻¹
Kd [8]: 9.2 nM
koff [8]: 0.00527 s⁻¹
kon [8]: 573000 M⁻¹ s⁻¹
Kd [9]: 8.8 nM
koff [9]: 0.00516 s⁻¹
kon [9]: 585000 M⁻¹ s⁻¹
Kd [10]: 86.9 nM
Kd [11]: 81.9 nM
B1: RF16-226 YEY (Fc mutations M252Y, N286E, N434Y) (antibody, human IgG4 S228P, lambda)
heavy: EVQLVQSGAEVKKPGESLKISCKGSGYSFTSYWIGWVRQMPGKGLEWMGIIYPGDSDTRYSPSFQGQVTISADKSISTAYLQWSSLKASDTAMYYCARRFSYSSGWDMWGQGTLVTVSSASTKGPSVFPLAPCSRSTSESTAALGCLVKDYFPEPVTVSWNSGALTSGVHTFPAVLQSSGLYSLSSVVTVPSSSLGTKTYTCNVDHKPSNTKVDKRVESKYGPPCPPCPAPEFLGGPSVFLFPPKPKDTLYISRTPEVTCVVVDVSQEDPEVQFNWYVDGVEVHEAKTKPREEQFNSTYRVVSVLTVLHQDWLNGKEYKCKVSNKGLPSSIEKTISKAKGQPREPQVYTLPPSQEEMTKNQVSLTCLVKGFYPSDIAVEWESNGQPENNYKTTPPVLDSDGSFFLYSRLTVDKSRWQEGNVFSCSVMHEALHYHYTQKSLSLSLGK
light: SYELTQPPSVSVSPGQTARITCSGDALTSKYVAWYQQKSGLAPLLVIYEDTRRPSGIPAKFSGSSSGSVATLTISGAHGDDEADYYCYSTDASGHQRVFGGGTKLTVLSQPKAAPSVTLFPPSSEELQANKATLVCLISDFYPGAVTVAWKADGSPVKAGVETTKPSKQSNNKYAASSYLSLTPEQWKSHRSYSCQVTHEGSTVEKTVAPTECS

Kd [12]: 83.1 nM
Kd [13]: 8.8 nM
koff [13]: 0.00539 s⁻¹
kon [13]: 612000 M⁻¹ s⁻¹
Kd [1]: 1100 nM
Kd [14]: 8.5 nM
koff [14]: 0.00493 s⁻¹
kon [14]: 578000 M⁻¹ s⁻¹
Kd [15]: 102 nM
Kd [2]: 8.7 nM
Kd [16]: 87.3 nM
Kd [17]: 10.2 nM
koff [17]: 0.00584 s⁻¹
Kd [18]: 8.4 nM
koff [18]: 0.00526 s⁻¹
kon [18]: 626000 M⁻¹ s⁻¹
Kd [19]: 91.9 nM
kon [20]: 572000 M⁻¹ s⁻¹
B2: RF16-226 YPY (Fc mutations M252Y, V308P, N434Y) (antibody, human IgG4 S228P, lambda)
heavy: EVQLVQSGAEVKKPGESLKISCKGSGYSFTSYWIGWVRQMPGKGLEWMGIIYPGDSDTRYSPSFQGQVTISADKSISTAYLQWSSLKASDTAMYYCARRFSYSSGWDMWGQGTLVTVSSASTKGPSVFPLAPCSRSTSESTAALGCLVKDYFPEPVTVSWNSGALTSGVHTFPAVLQSSGLYSLSSVVTVPSSSLGTKTYTCNVDHKPSNTKVDKRVESKYGPPCPPCPAPEFLGGPSVFLFPPKPKDTLYISRTPEVTCVVVDVSQEDPEVQFNWYVDGVEVHNAKTKPREEQFNSTYRVVSVLTPLHQDWLNGKEYKCKVSNKGLPSSIEKTISKAKGQPREPQVYTLPPSQEEMTKNQVSLTCLVKGFYPSDIAVEWESNGQPENNYKTTPPVLDSDGSFFLYSRLTVDKSRWQEGNVFSCSVMHEALHYHYTQKSLSLSLGK
light: SYELTQPPSVSVSPGQTARITCSGDALTSKYVAWYQQKSGLAPLLVIYEDTRRPSGIPAKFSGSSSGSVATLTISGAHGDDEADYYCYSTDASGHQRVFGGGTKLTVLSQPKAAPSVTLFPPSSEELQANKATLVCLISDFYPGAVTVAWKADGSPVKAGVETTKPSKQSNNKYAASSYLSLTPEQWKSHRSYSCQVTHEGSTVEKTVAPTECS

Kd [21]: 74.6 nM
Kd [22]: 8.5 nM
koff [22]: 0.00495 s⁻¹
kon [22]: 584000 M⁻¹ s⁻¹
Kd [23]: 9.9 nM
koff [23]: 0.00592 s⁻¹
Kd [24]: 71 nM
Kd [25]: 8.3 nM
koff [25]: 0.00543 s⁻¹
kon [25]: 653000 M⁻¹ s⁻¹
Kd [26]: 450 nM
Kd [27]: 92.8 nM
Kd [28]: 7.9 nM
koff [28]: 0.00521 s⁻¹
kon [28]: 657000 M⁻¹ s⁻¹
kon [29]: 601000 M⁻¹ s⁻¹
Kd [30]: 74.3 nM
B3: RF16-226 YTE (Fc mutations M252Y, S254T, T256E) (antibody, human IgG4 S228P, lambda)
heavy: EVQLVQSGAEVKKPGESLKISCKGSGYSFTSYWIGWVRQMPGKGLEWMGIIYPGDSDTRYSPSFQGQVTISADKSISTAYLQWSSLKASDTAMYYCARRFSYSSGWDMWGQGTLVTVSSASTKGPSVFPLAPCSRSTSESTAALGCLVKDYFPEPVTVSWNSGALTSGVHTFPAVLQSSGLYSLSSVVTVPSSSLGTKTYTCNVDHKPSNTKVDKRVESKYGPPCPPCPAPEFLGGPSVFLFPPKPKDTLYITREPEVTCVVVDVSQEDPEVQFNWYVDGVEVHNAKTKPREEQFNSTYRVVSVLTVLHQDWLNGKEYKCKVSNKGLPSSIEKTISKAKGQPREPQVYTLPPSQEEMTKNQVSLTCLVKGFYPSDIAVEWESNGQPENNYKTTPPVLDSDGSFFLYSRLTVDKSRWQEGNVFSCSVMHEALHNHYTQKSLSLSLGK
light: SYELTQPPSVSVSPGQTARITCSGDALTSKYVAWYQQKSGLAPLLVIYEDTRRPSGIPAKFSGSSSGSVATLTISGAHGDDEADYYCYSTDASGHQRVFGGGTKLTVLSQPKAAPSVTLFPPSSEELQANKATLVCLISDFYPGAVTVAWKADGSPVKAGVETTKPSKQSNNKYAASSYLSLTPEQWKSHRSYSCQVTHEGSTVEKTVAPTECS
